The results in this text go back to the Immune Epitope Database (IEDB).

Assay [1] deals with HLA-B*15:01. Nature of the assay: IEDB peptide-MHC binding, purified MHC/competitive/fluorescence; ≥ and ≤ were set here for values at or beyond the usual limits of such assays.
Assay [2] addresses HLA-A*24:02. The description is as above.
For assay [3], the target named is HLA-A*11:01. The assay is described as above. The settings on record: source organism: Zaire ebolavirus.
In assay [4] the target is HLA-A*02:01. The description is as above.
Assay [5] has as its target HLA-A*02:17. The assay is described as follows: IEDB peptide-MHC binding, purified MHC/competitive/radioactivity; filed as Kd, often an IC50 or EC50 that approximates it; ≥ and ≤ were set here for values at or beyond the usual limits of such assays.
Assay [6] concerns the target HLA-A*02:01. The description is as above.
In assay [7] the target is HLA-A*11:01. The assay is described as follows: IEDB peptide-MHC binding, purified MHC/direct/fluorescence; filed as Kd, often an IC50 or EC50 that approximates it; ≥ and ≤ were set here for values at or beyond the usual limits of such assays.
The target in assay [8] is HLA-A*31:01. The assay is described as follows: IEDB peptide-MHC binding, purified MHC/competitive/fluorescence; filed as Kd, often an IC50 or EC50 that approximates it; ≥ and ≤ were set here for values at or beyond the usual limits of such assays.
Assay [9] concerns the target HLA-A*03:01. Nature of the assay: IEDB peptide-MHC binding, purified MHC/direct/fluorescence; filed as Kd, often an IC50 or EC50 that approximates it; ≥ and ≤ were set here for values at or beyond the usual limits of such assays.
For assay [10], the target named is HLA-A*02:03. Nature of the assay: IEDB peptide-MHC binding, purified MHC/competitive/radioactivity; filed as Kd, often an IC50 or EC50 that approximates it; ≥ and ≤ were set here for values at or beyond the usual limits of such assays.
Assay [11] concerns the target HLA-A*02:06. The description is as above.
Assay [12] addresses HLA-B*51:01. The assay is described as above. The settings on record: source organism: Dengue virus 2 Peru/IQT2913/1996.
Assay [13] has as its target HLA-B*08:01. The description is as above.
Assay [14] addresses HLA-A*02:12. Nature of the assay: IEDB peptide-MHC binding, purified MHC/direct/fluorescence; filed as Kd, often an IC50 or EC50 that approximates it; ≥ and ≤ were set here for values at or beyond the usual limits of such assays.
The target of assay [15] is HLA-A*02:19. Described as above.
Assay [16] addresses HLA-A*03:01. Nature of the assay: IEDB peptide-MHC binding, purified MHC/competitive/fluorescence; filed as Kd, often an IC50 or EC50 that approximates it; ≥ and ≤ were set here for values at or beyond the usual limits of such assays. The settings on record: source organism: Neembucu hantavirus.
Assay [17] concerns the target HLA-B*15:17. The description is as above. The settings on record: source organism: Neembucu hantavirus.
Assay [18] has as its target HLA-B*15:01. The assay is described as above. The settings on record: source organism: Neembucu hantavirus.
Assay [19] has as its target HLA-A*26:01. Described as above. The settings on record: source organism: Neembucu hantavirus.
Assay [20] deals with HLA-B*39:01. The description is as above. The settings on record: source organism: Neembucu hantavirus.
Assay [21] deals with HLA-B*57:01. Described as above. The settings on record: source organism: Neembucu hantavirus.
In assay [22] the target is HLA-B*18:01. Described as above. The settings on record: source organism: Neembucu hantavirus.
For assay [23], the target named is HLA-B*46:01. The description is as above. The settings on record: source organism: Neembucu hantavirus.
Assay [24] addresses HLA-A*69:01. The description is as above. The settings on record: source organism: Neembucu hantavirus.
For assay [25], the target named is HLA-B*51:01. The assay is described as above. The settings on record: source organism: Neembucu hantavirus.
In assay [26] the target is HLA-B*27:03. Described as above. The settings on record: source organism: Neembucu hantavirus.
Assay [27] has as its target HLA-A*02:11. The assay is described as follows: IEDB peptide-MHC binding, purified MHC/direct/fluorescence; filed as Kd, often an IC50 or EC50 that approximates it; ≥ and ≤ were set here for values at or beyond the usual limits of such assays. The settings on record: source organism: Sapporo rat virus.
Assay [28] has as its target HLA-A*69:01. The assay is described as above. The settings on record: source organism: Amur virus.
Assay [29] deals with HLA-A*02:01. Described as above. The settings on record: source organism: Amur virus.
The target of assay [30] is HLA-B*15:01. The assay is described as follows: IEDB peptide-MHC binding, purified MHC/competitive/radioactivity; filed as Kd, often an IC50 or EC50 that approximates it; ≥ and ≤ were set here for values at or beyond the usual limits of such assays. The settings on record: source organism: Dengue virus 3 China/80-2/1980.
The target of assay [31] is HLA-A*30:01. The assay is described as above. The settings on record: source organism: Dengue virus 4 Philippines/H241/1956.
Assay [32] addresses HLA-A*68:02. Described as above. The settings on record: source organism: Dengue virus 1 Brazil/97-11/1997.
The mark [33] stands for this setting: source organism: Zaire ebolavirus.
[34] abbreviates: source organism: Dengue virus 1 Singapore/S275/1990.
The mark [35] stands for this setting: source organism: Vaccinia virus.
Setting [36] is: source organism: West Nile virus.
[37] abbreviates: source organism: Influenza A virus (A/swine/Korea/S190/2004(H9N2)).
The mark [38] stands for this setting: source organism: Campylobacter jejuni.
Where [39] appears, read: source organism: Vaccinia virus Copenhagen.
[40] abbreviates: source organism: Dengue virus 4 Philippines/H241/1956.
Where [41] appears, read: source organism: Dengue virus 2 Thailand/NGS-C/1944.
Where [42] appears, read: source organism: Dengue virus 3 China/80-2/1980.
Where [43] appears, read: source organism: Mammarenavirus lassaense.
[44] abbreviates: source organism: Dengue virus 1 Brazil/97-11/1997.
Where [45] appears, read: source organism: Dengue virus 4 Dominica/814669/1981.
Where [46] appears, read: source organism: Orthohantavirus negraense.
Setting [47] is: source organism: Dengue virus 2 Jamaica/1409/1983.
[48] abbreviates: source organism: Vaccinia virus WR.
Setting [49] is: source organism: Sudan ebolavirus.
Setting [50] is: source organism: Sapporo rat virus.

As usually defined, the IC50 is the midpoint of a concentration-inhibition curve. The Kd is a measure of binding affinity in units of concentration.

Turning to LSFASLFLP, the IC50 in assay [1] (setting [33]) was at least 97.8 µM; in assay [2] (setting [33]), 11.1 µM; in assay [3], at least 179 µM; in [4] (setting [33]) it was 2.67 µM.
Take MLLILCTSQI: the equilibrium dissociation constant (Kd) in assay [5] (setting [34]) stood at 0.182 µM; in assay [6] (setting [34]), 0.0758 µM.
In turn, KCIKKGVEY gave an IC50 in assay [1] (setting [35]) of at least 91.2 µM.
GLYKSAPRR: the Kd was at least 20 µM in [7] (setting [36]) and 0.197 µM in assay [8] (setting [36]).
As to TTHSWIPKR, the Kd in assay [9] (setting [37]) was determined as 2.83 µM; in assay [7] (setting [37]) it was 0.132 µM; in [8] (source organism: Influenza A virus (A/Fort Monmouth/1/1947-mouse adapted(H1N1))) it was 0.0023 µM.
As for GLLCVMASSV, the Kd in assay [5] (setting [34]) stood at 0.151 µM; in [10] (setting [34]) it was 0.026 µM; in [6] (setting [34]), 0.0114 µM.
With KTFVELMRR, the Kd in assay [7] (setting [34]) is 0.0162 µM; in assay [8] (source organism: dengue virus type 1), at most 0.001 µM.
With IMLEYPHFK, the Kd worked out at 0.0229 µM in assay [9] (setting [38]), 0.0018 µM in assay [7] (setting [38]) and 0.0136 µM in assay [8] (source organism: Campylobacter jejuni subsp. jejuni NCTC 11168 = ATCC 700819).
As to QMTSTFIML, the concentration for half-maximal inhibition (IC50) came to 30.2 µM in assay [1] (setting [39]) and 0.224 µM in assay [2] (setting [39]).
Regarding GTSGTEKEF, the IC50 is at least 401 µM in assay [1] (setting [35]) and at least 205 µM in assay [2] (setting [35]).
For the sequence VILAGPIPV, the Kd is 0.995 µM in assay [5] (setting [40]), 0.132 µM in assay [11] (setting [40]) and 0.00674 µM in assay [6] (setting [40]).
Consider FLFLMSGRGI, for which the Kd in assay [5] (setting [41]) was found to be 0.726 µM; in assay [10] (source organism: Dengue virus 2 Peru/IQT2913/1996), 0.00633 µM; in assay [12], 7.91 µM; in assay [6] (setting [41]) it was 0.00421 µM.
Regarding MMMLPATLA, the values for the Kd in assay [5] (setting [42]), in assay [10] (setting [42]) and in assay [6] (setting [42]) were 0.106 µM, 0.0286 µM and 0.0276 µM, respectively.
Regarding KLIDIALSK, the Kd in [9] (setting [43]) worked out at 0.639 µM; in [7] (setting [43]), 0.0012 µM; in assay [8] (source organism: Lassa virus Josiah) it was 0.142 µM.
As for LLMLLPTAL, the Kd is 0.0116 µM in [5] (setting [34]), 0.00642 µM in [13] (setting [44]), 0.031 µM in assay [10] (setting [44]) and 0.00754 µM in assay [6] (setting [34]).
Take TLATGPILTL: the Kd in [5] (setting [45]) amounted to 0.687 µM; in assay [10] (setting [45]) it was 0.0121 µM; in [6] (setting [45]) it was 0.0654 µM.
For the sequence ILYMLSWGK, the Kd in [14] (setting [46]) was at least 20 µM; in [15] (setting [46]) it was at least 20 µM; in [16] it was 0.155 µM; in [17], at least 20 µM; in assay [18], at least 20 µM; in [19], at least 20 µM. Besides, the dissociation constant Kd in assay [20], in [21], in assay [22], in assay [23], in assay [24] and in assay [25] was at least 20 µM throughout. Besides, the Kd in assay [26] was at least 20 µM.
Regarding WLVHRQWFL, the Kd in assay [5] (setting [47]) amounted to 0.0618 µM; in assay [13] (setting [47]) it was 0.00869 µM; in assay [11] (setting [47]), 0.156 µM; in assay [6] (setting [47]), 0.0024 µM.
For the sequence VGLITCKAF, the IC50 was 57.3 µM in assay [1] (setting [48]), 7.71 µM in assay [2] (setting [48]) and at least 1310 µM in assay [4] (setting [48]).
On to KEFLRYLLF, for which the figures for the concentration for half-maximal inhibition (IC50) in [1] (setting [35]) and in assay [2] (setting [35]) were at least 277 µM and 0.381 µM, respectively.
In the case of ILAKPKETF, the IC50 in [1] (setting [49]) is at least 102 µM; in [2] (setting [49]) it was 0.5 µM.
VLMMRTTWA: the dissociation constant (Kd) in [5] (setting [47]) was found to be 15.2 µM; in assay [13] (setting [47]) it was 0.0128 µM; in assay [10] (setting [47]), 0.0135 µM; in [6] (setting [47]) it was 0.0346 µM.
Take SLTECPTFL: the Kd was at most 0.001 µM in [27]; 0.005 µM in assay [14] (setting [50]); at least 20 µM in assay [28]; at most 0.001 µM in assay [29]; 0.041 µM in [15] (setting [50]).
On to VLVGVVTLYL, for which the Kd in assay [5] (setting [47]) was found to be 1.57 µM; in assay [6] (setting [47]) it was 0.062 µM.
Turning to ALPVYLMTL, the Kd stood at 0.00177 µM in [5] (setting [40]) and 0.0109 µM in assay [6] (setting [40]).
On the same counts, the results for ILAKAIFKL are 0.0379 µM and 0.014 µM.
With LMMMLPATL, the Kd in [5] (setting [42]) was 0.227 µM; in assay [30], 0.0871 µM; in assay [13] (setting [42]), 0.0187 µM; in [10] (setting [42]), 0.00662 µM.
Consider KMKKKTWLV, for which the Kd in [5] (setting [40]) was 0.065 µM; in assay [13] (setting [40]), 0.0935 µM; in [10] (setting [40]), 0.031 µM; in assay [31] it was 0.0172 µM; in assay [6] (setting [40]), 0.0666 µM.
As to TLTAAVLMLV, the Kd in [5] (setting [34]) is 1.06 µM; in [32], 0.00158 µM; in assay [10] (setting [44]) it was 0.00345 µM; in assay [6] (setting [34]), 0.00397 µM.
Take SLCLMMMLPA: the Kd in assay [5] (setting [42]) is 11.7 µM; in [6] (setting [42]), 0.0657 µM.
Turning to KSNIEETKF, the concentration for half-maximal inhibition (IC50) in [1] (setting [35]) is at least 481 µM.
